According to PMC10786891, “Massively parallel profiling of RNA-targeting CRISPR-Cas13d”:

Molecular target: T1, EsCas13d, nuclease-dead (Eubacterium siraeum, UniProt B0MS50, R295A;H300A;R849A;H854A)
T1 sequence: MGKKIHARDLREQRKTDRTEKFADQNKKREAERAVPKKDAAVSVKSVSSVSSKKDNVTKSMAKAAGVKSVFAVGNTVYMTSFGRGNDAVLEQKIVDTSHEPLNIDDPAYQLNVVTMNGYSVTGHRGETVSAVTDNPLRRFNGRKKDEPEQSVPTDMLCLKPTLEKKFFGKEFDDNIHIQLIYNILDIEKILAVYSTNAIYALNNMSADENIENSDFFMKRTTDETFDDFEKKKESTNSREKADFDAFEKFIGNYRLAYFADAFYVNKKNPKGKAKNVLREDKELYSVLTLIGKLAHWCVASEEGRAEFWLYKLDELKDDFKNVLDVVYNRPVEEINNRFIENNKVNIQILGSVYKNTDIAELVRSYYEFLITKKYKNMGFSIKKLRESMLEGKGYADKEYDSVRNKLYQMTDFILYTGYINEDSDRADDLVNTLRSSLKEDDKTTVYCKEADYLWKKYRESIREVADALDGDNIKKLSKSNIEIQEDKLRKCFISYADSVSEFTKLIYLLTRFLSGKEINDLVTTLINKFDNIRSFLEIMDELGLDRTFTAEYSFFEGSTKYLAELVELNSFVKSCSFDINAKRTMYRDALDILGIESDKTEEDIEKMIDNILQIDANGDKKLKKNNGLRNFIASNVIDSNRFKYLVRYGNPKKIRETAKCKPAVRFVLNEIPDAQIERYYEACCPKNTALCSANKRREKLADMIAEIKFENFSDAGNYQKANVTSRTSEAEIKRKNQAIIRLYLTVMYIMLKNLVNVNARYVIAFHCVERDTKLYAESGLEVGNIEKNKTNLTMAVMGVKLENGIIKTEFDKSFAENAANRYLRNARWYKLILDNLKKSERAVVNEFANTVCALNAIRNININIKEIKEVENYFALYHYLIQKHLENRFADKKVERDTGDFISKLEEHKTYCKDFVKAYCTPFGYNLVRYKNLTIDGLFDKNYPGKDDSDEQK
Test: crRNA (strand 1, pre-loaded); Mg2+; 40 mM Tris-HCl pH 7.5, 150 mM NaCl, 6 mM MgCl2, 1 mM DTT, 0.1% Tween-20, 0.2 mg/ml BSA; 25 C; 10 min per concentration, then washed
Settings: tags: His6-TwinStrep-SUMO cleaved; N-terminal SNAP kept (SNAP-Surface 488); label: 3' end held by stalled T7 RNA polymerase

B1: target 2 MT 5'PFS GCC 3'PFS UUG (mixed)
RNA 1: CACCCGUGCAAAAUUGCAGGGGUCUAAAACCUUCUCCAAAUUGUUUCAUCCU
RNA 2: GGGAAUGGAUCCACAUCUACGAAUUCGCCAGGAUGAAACAAUUUGGAGAAGUUGAGAUCGGAAGAGCACACGU
Kd: 15.3 ± 2.1 nM

B2: target 2 MT 5'PFS ACU 3'PFS CAU (mixed)
RNA 1: CACCCGUGCAAAAUUGCAGGGGUCUAAAACCUUCUCCAAAUUGUUUCAUCCU
RNA 2: GGGAAUGGAUCCACAUCUACGAAUUCACUAGGAUGAAACAAUUUGGAGAAGCAUAGAUCGGAAGAGCACACGU
Kd: 3.1 ± 0.5 nM

B3: target 2 MT 5'PFS CUU 3'PFS UGA (mixed)
RNA 1: CACCCGUGCAAAAUUGCAGGGGUCUAAAACCUUCUCCAAAUUGUUUCAUCCU
RNA 2: GGGAAUGGAUCCACAUCUACGAAUUCCUUAGGAUGAAACAAUUUGGAGAAGUGAAGAUCGGAAGAGCACACGU
Kd: 6.5 ± 2 nM

B4: target 2 MT 5'PFS ACU 3'PFS CAA (mixed)
RNA 1: CACCCGUGCAAAAUUGCAGGGGUCUAAAACCUUCUCCAAAUUGUUUCAUCCU
RNA 2: GGGAAUGGAUCCACAUCUACGAAUUCACUAGGAUGAAACAAUUUGGAGAAGCAAAGAUCGGAAGAGCACACGU
Kd: 3.7 ± 0.8 nM

B5: target 2 MT 5'PFS CUU 3'PFS UGC (mixed)
RNA 1: CACCCGUGCAAAAUUGCAGGGGUCUAAAACCUUCUCCAAAUUGUUUCAUCCU
RNA 2: GGGAAUGGAUCCACAUCUACGAAUUCCUUAGGAUGAAACAAUUUGGAGAAGUGCAGAUCGGAAGAGCACACGU
Kd: 4.5 ± 0.9 nM

B6: target 2 MT 5'PFS GCC 3'PFS UUC (mixed)
RNA 1: CACCCGUGCAAAAUUGCAGGGGUCUAAAACCUUCUCCAAAUUGUUUCAUCCU
RNA 2: GGGAAUGGAUCCACAUCUACGAAUUCGCCAGGAUGAAACAAUUUGGAGAAGUUCAGAUCGGAAGAGCACACGU
Kd: 27 ± 7 nM

B7: target 2 MT 5'PFS ACU 3'PFS CAG (mixed)
RNA 1: CACCCGUGCAAAAUUGCAGGGGUCUAAAACCUUCUCCAAAUUGUUUCAUCCU
RNA 2: GGGAAUGGAUCCACAUCUACGAAUUCACUAGGAUGAAACAAUUUGGAGAAGCAGAGAUCGGAAGAGCACACGU
Kd: 4.5 ± 0.5 nM

B8: target 2 MT 5'PFS UAA 3'PFS ACU (mixed)
RNA 1: CACCCGUGCAAAAUUGCAGGGGUCUAAAACCUUCUCCAAAUUGUUUCAUCCU
RNA 2: GGGAAUGGAUCCACAUCUACGAAUUCUAAAGGAUGAAACAAUUUGGAGAAGACUAGAUCGGAAGAGCACACGU
Kd: 9 ± 1.4 nM

B9: target 2 MT 5'PFS GCC 3'PFS UUU (mixed)
RNA 1: CACCCGUGCAAAAUUGCAGGGGUCUAAAACCUUCUCCAAAUUGUUUCAUCCU
RNA 2: GGGAAUGGAUCCACAUCUACGAAUUCGCCAGGAUGAAACAAUUUGGAGAAGUUUAGAUCGGAAGAGCACACGU
Kd: 41 ± 11 nM

B10: target 2 MT 5'PFS GAC 3'PFS CUU (mixed)
RNA 1: CACCCGUGCAAAAUUGCAGGGGUCUAAAACCUUCUCCAAAUUGUUUCAUCCU
RNA 2: GGGAAUGGAUCCACAUCUACGAAUUCGACAGGAUGAAACAAUUUGGAGAAGCUUAGAUCGGAAGAGCACACGU
Kd: 12.5 ± 1.3 nM

B11: target 2 MT 5'PFS ACU 3'PFS CAC (mixed)
RNA 1: CACCCGUGCAAAAUUGCAGGGGUCUAAAACCUUCUCCAAAUUGUUUCAUCCU
RNA 2: GGGAAUGGAUCCACAUCUACGAAUUCACUAGGAUGAAACAAUUUGGAGAAGCACAGAUCGGAAGAGCACACGU
Kd: 4.1 ± 0.6 nM

B12: target 2 MT 5'PFS GCC 3'PFS UUA (mixed)
RNA 1: CACCCGUGCAAAAUUGCAGGGGUCUAAAACCUUCUCCAAAUUGUUUCAUCCU
RNA 2: GGGAAUGGAUCCACAUCUACGAAUUCGCCAGGAUGAAACAAUUUGGAGAAGUUAAGAUCGGAAGAGCACACGU
Kd: 25 ± 7 nM

B13: target 1 C6G,A18U (mixed)
RNA 1: CACCCGUGCAAAAAUGCAGGGGUCUAAAACUGAGCGGAUAACCUCUCUAUGG
RNA 2: GGGAAUGGAUCCACAUCUACGAAUUCGUACCAUUGAGAGGUUAUCGGCUCACCGAGAUCGGAAGAGCACACGU
Kd: 29 ± 4 nM
